Patent US11155602B2, “Polypeptides targeting HIV fusion” (priority 2015, dated 2021)

B1: 169 (protein)
chain: MGHHHHHHGGSVSDVPRDLEVVAATPTSLLISWEYNVNPYRYYRITYGETGGNSPVQEFTVPSVLSTATISGLKPGVDYTITVYAVTRGVDSAPISINYRTEID
modifications: Adnectin
B2: 198 (protein)
chain: MGHHHHHHGGSVSDVPRDLEVVAATPTSLLISWEYKVHPYRYYRITYGETGGNSPVQEFTVPSVLSTATISGLKPGVDYTITVYAVTYGDDSAPISIQYRTEID
modifications: Adnectin
B3: 177 (protein)
chain: MGHHHHHHGGSVSDVPRDLEVVAATPTSLLISWEYKVHPYRYYRITYGETGGNSPVQEFTVPSVLSTATISGLKPGVDYTITVYAVTYGDDSAPISIPYRTPGG
modifications: Adnectin
B4: 190 (protein)
chain: MGHHHHHHGGSVSDVPRDLEVVAATPTSLLISWEYKVHPYRYYRITYGETGGNSPVQEFTVPSVLSTATISGLKPGVDYTITVYAVTYGADSAPISINYRTEID
modifications: Adnectin
B5: 179 (protein)
chain: MGHHHHHHGGSVSDVPRDLEVVAATPTSLLISWEYKVHPYRYYRITYGETGGNSPVQEFTVPSVLSTATISGLKPGVDYTITVYAVTYGDDSRPISINYRTEID
modifications: Adnectin
B6: 175 (protein)
chain: MGHHHHHHGGSVSDVPRDLEVVAATPTSLLISWEYKVHYDRYYRITYGETGGNSPVQEFTVPSVLSTATISGLKPGVDYTITVYAVTYGVQSTPISINYRTEID
modifications: Adnectin
B7: 187 (protein)
chain: MGHHHHHHGGSVSDVPRDLEVVAATPTSLLISWEYKVHPYRYYRITYGETGGNSPVQEFKVPSVLSTATISGLKPGVDYTITVYAVTYGDDSAPISINYRTEID
modifications: Adnectin
B8: 195 (protein)
chain: MGHHHHHHGGSVSDVPRDLEVVAATPTSLLISWEYKVHPYRYYRITYGETGGNSPVQEFTVPSVLSTATISGLKPGVDYTITVYAVTYGDDSQPISINYRTEID
modifications: Adnectin
B9: 174 (protein)
chain: MGHHHHHHGGSVSDVPRDLEVVAATPTSLLISWEYNVNAYRYYRITYGETGGNSPVQEFTVPSVLSTATISGLKPGVDYTITVYAVTYGIISEPISINYRTEID
modifications: Adnectin
B10: 186 (protein)
chain: MGHHHHHHGGSVSDVPRDLEVVAATPTSLLISWEYKVHPYRYYRITYGETGGNSPVQEFTVPSVLSTATISGLKPGVDYTITVYAVTYGEDSAPISINYRTEID
modifications: Adnectin
B11: 181 (protein)
chain: MGHHHHHHGGSVSDVPRDLEVVAATPTSLLISWEYKVHPYRYYRITYGETGGNSPVQEFTVPSVLSTATISGLKPGVDYTITVYAVTYGDHSAPISINYRTEID
modifications: Adnectin
B12: 196 (protein)
chain: MGHHHHHHGGSVSDVPRDLEVVAATPTSLLISWEYKVHPYRYYRITYGETGGNSPVQEFTVPSVLSTATISGLKPGVDYTITVYAVTYGDVSAPISINYRTEID
modifications: Adnectin
B13: 192 (protein)
chain: MGHHHHHHGGSVSDVPRDLEVVAATPTSLLISWEYKVHPYRYYRITYGETGGNSPVQEFTVPSVLSTATISGLKPGVDYTITVYAVTYGTDSAPISINYRTEID
modifications: Adnectin
B14: 170 (protein)
chain: MGHHHHHHGGSVSDVPRDLEVVAATPTSLLISWEYKVSPYRYYRITYGETGGNSPVQEFTVPSVLSTATISGLKPGVDYTITVYAVTFGIRSSPISINYRTEID
modifications: Adnectin
B15: 189 (protein)
chain: MGHHHHHHGGSVSDVPRDLEVVAATPTSLLISWEYKVHPYRYYRITYGETGGNSPVQEFTVPSVLSTATISGLKPGVDYTITVYAVTYGKDSAPISINYRTEID
modifications: Adnectin
B16: 191 (protein)
chain: MGHHHHHHGGSVSDVPRDLEVVAATPTSLLISWEYKVHPYRYYRITYGETGGNSPVQEFTVPSVLSTATISGLKPGVDYTITVYAVTYGTDSAPISINYRTEID
modifications: Adnectin
B17: 173 (protein)
chain: MGHHHHHHGGAVSDVPRDLEVVAATPTSLLISWEYKVNPWRYYRITYGETGGNSPVQEFTVPSVLSTATISGLKPGVDYTITVYAVTYGVHSSPISINYRTEID
modifications: Adnectin
B18: 197 (protein)
chain: MGHHHHHHGGSVSDVPRDLEVVAATPTSLLISWEYKVHPYRYYRITYGETGGNSPVQEFTVPSVLSTATISGLKPGVDYTITVYAVTYGDDSGPISINYRTEID
modifications: Adnectin
B19: 182 (protein)
chain: MGHHHHHHGGSVSDVPRDLEVVAATPTSLLISWEYKVHPYRYYRITYGETGGNSPVQEFTVPSVLSTATISGLKPGVDYTITVYAVTYGDQSAPISINYRTEID
modifications: Adnectin
B20: 172 (protein)
chain: MGHHHHHHGGSVSDVPRDLEVVAATPTSLLISWEYKVDPYRYYRITYGETGGNSPVQEFTVPSVLSTATISGLKPGVDYTITVYAVTYGIDSSPISINYRTEID
modifications: Adnectin
B21: 193 (protein)
chain: MGHHHHHHGGSVSDVPRDLEVVAATPTSLLISWEYKVHPYRYYRITYGETGGNSPVQEFTVPSVLSTATISGLKPGVDYTITVYAVTYGKDSAPISINYRTEID
modifications: Adnectin
B22: 171 (protein)
chain: MGHHHHHHGGSVSDVPRDLEVVAATPTSLLISWKYQVHAYRYYRITYGETGGNSPVQEFTVPSVLSTATISGLKPGVDYTITVYAVTYGIISEPISINYRTEID
modifications: Adnectin
B23: 180 (protein)
chain: MGHHHHHHGGSVSDVPRDLEVVAATPTSLLISWEYKVHPYRYYRITYGETGGNSPVQEFTVPSVLSTATISGLKPGVDYTITVYAVTYGKDSAPISINYRTEID
modifications: Adnectin
B24: 194 (protein)
chain: MGHHHHHHGGSVSDVPRDLEVVAATPTSLLISWEYKVHPYRYYRITYGETGGNSPVQEFTVPSVLSTATISGLKPGVDYTITVYAVTYGDPSAPISINYRTEID
modifications: Adnectin
B25: 184 (protein)
chain: MGHHHHHHGGSVSDVPRDLEVVAATPTSLLISWEYKVHPYRYYRITYGETGGNSPVQEFTVPSVLSTATISGLKPGVDYTITVYAVTYGDVSAPISINYRTEID
modifications: Adnectin
B26: 176 (protein)
chain: MGHHHHHHGGSVSDVPRDLEVVAATPTSLLISWEYKVHHDRYYRITYGETGGNSPVQEFTVPSVLSTATISGLKPGVDYTITVYAVTYGIESSPISINYRTEID
modifications: Adnectin
B27: 183 (protein)
chain: MGHHHHHHGGSVSDVPRDLEVVAATPTSLLISWEYKVHPYRYYRITYGETGGNSPVQEFTVPSVLSTATISGLKPGVDYTITVYAVTYGIDSAPISINYRTEID
modifications: Adnectin
B28: 188 (protein)
chain: MGHHHHHHGGSVSDVPRDLEVVAATPTSLLISWEYKVHPYRYYRITYGETGGNSPVQEFTVPSVLSTATISGLKPGVDYTITVYAVTYGDLSAPISINYRTEID
modifications: Adnectin
B29: 119 (protein)
chain: MGVSDVPRDLEVVAATPTSLLISWDAPAVTVGWYHIGYNVEGEPASYQYFRVPGSKSTATISGLKPGVEYMIFVNAVTGSGAREEFSLPISINYRTEGSGSHHHHHH
modifications: Adnectin
B30: 120 (protein)
chain: MGHHHHHHGGVSDVPRDLEVVAATPTSLLISWEYNVNPYRYYRITYGETGGNSPVQEFTVPSVLSSAQISGLKPGVDYTITVYAVTRGVDSAPISINYRTPGG
modifications: Adnectin
B31: 121 (protein)
chain: MGHHHHHHGGVSDVPRDLEVVAATPTSLLISWEYNVNPYRYYRITYGETGGNSPVQEFTVPSVLSTAEISGLKPGVDYTITVYAVTYGVDSDPISINYRTPGG
modifications: Adnectin

Test system: NL-Rluc virus
Assay: Combinectin potency assay: antiviral EC50, NL-Rluc virus in MT-2 cells, luciferase readout
Format: cell-based, HIV-1
Conditions: Anti-N17 Adnectin, Table 3
Procedure: MT-2 cells, HEK 293T cells and the proviral DNA clone of […] were obtained from the NIH AIDS Research and Reference Reagent Program. MT-2 cells were propagated in RPMI 1640 medium supplemented with 10% heat-inactivated fetal bovine serum (FBS), 10 mM HEPES buffer pH 7.55, and 2 mM L-glutamine. HEK 293T cells were propagated in DMEM media supplemented with 10% heat-inactivated FBS, 10 mM HEPES buffer pH 7.55 and 2 mM L-glutamine. Recombinant NL-Rluc virus, in which a section of the nef gene from the proviral clone of NL4-3 was replaced with the Renilla luciferase gene, was constructed at Bristol-Myers Squibb. The replication-competent virus was harvested 3 days after transfection of HEK 293T cells with the modified pNL-Rluc proviral clone. Transfections were performed using Lipofectamine Plus (Invitrogen, Carlsbad, Calif.), according to manufacturer's instruction. Virus was titered in MT-2 cells using luciferase enzyme activity as a biomarker. The NL-Rluc virus used to infect MT-2 cells a multiplicity of 0.01 for 1 hour before adding to the peptides in 96-well plates. Peptides were serially diluted three-fold and 11 concentrations were plated in triplicate. After 4-5 days of incubation, cells were processed and quantitated for virus growth by the amount of expressed luciferase. Luciferase was quantitated using the Dual Luciferase kit from Promega (Madison, Wis.), with modifications to the manufacturer's protocol. The diluted Passive Lysis solution was pre-mixed with the re-suspended Luciferase Assay Reagent and then re-suspended in STOP & GLO® Substrate (2:1:1 ratio). A total of […] of the mixture was added to each aspirated well on assay plates and luciferase activity was measured immediately on a Wallac TriLux (Perkin-Elmer, Waltham, Mass.). The 50% effective concentration (EC50) was calculated by comparing the amount of luciferase produced in the presence of inhibitory peptide compared to wells where no peptide was added.

First: B1
Second: B2
The EC50 of the first is 570-fold lower: 5 nM for the first, 2830 nM for the second. The first is the more potent here.

Going from B3 to B4, the EC50 rises from 252 nM to greater than 1000 nM.

First: B5
Second: B6
The EC50 of the first is higher: greater than 1000 nM for the first, 5 nM for the second. The second is the more potent here.

Compared with B7, B8 is higher in EC50: 86 nM for the first, greater than 1000 nM for the second. The first is the more potent here.

Compared with B9, B10 is 570-fold higher in EC50: 5 nM for the first, 2830 nM for the second. The first is the more potent here.

Going from B11 to B12, the EC50 falls from 631 nM to 86 nM (7.3-fold). The second is the more potent here.

Compared with B13, B14 is 570-fold lower in EC50: 2830 nM for the first, 5 nM for the second. The second is the more potent here.

B15 and B16 cannot be ordered by EC50: greater than 1000 nM for the first, greater than 1000 nM for the second.

Going from B17 to B18, the EC50 rises from 5 nM to 81 nM (16-fold).

First: B19
Second: B20
The EC50 of the first is higher: greater than 1000 nM for the first, 5 nM for the second.

First: B21
Second: B22
The EC50 of the first is 7.2-fold higher: 252 nM for the first, 35 nM for the second. The second is the more potent here.

B23 and B24 cannot be ordered by EC50: greater than 1000 nM for the first, greater than 1000 nM for the second.

Compared with B25, B26 is higher in EC50: 20 nM for the first, greater than 1000 nM for the second. The first is the more potent here.

First: B27
Second: B28
The EC50 of the first is 4.3-fold lower: 20 nM for the first, 86 nM for the second. The first is the more potent here.

Going from B29 to B30, the EC50 falls from greater than 1000 nM to 39 nM. The second is the more potent here.

Work on B31 yielded an EC50 of 57 nM.
